Assay results reported in patent US20260224761A1, “DUAL LABELLED COMPOUNDS TARGETING THE PROSTATE SPECIFIC MEMBRANE ANTIGEN” (priority 2023, published 2026).
Like-named read-outs stand apart in the source and are kept apart here. Where a SMILES comes first, the peptide text is derived from it. [ ]: non-standard residue; d: D form. The star is where a group is joined. X1 = O=C(O)CC[C@H](NC(=O)N[C@@H](CCCCNC(=O)CCCCCCC(=O)*)C(=O)O)C(=O)O; d2Nal = N[C@H](Cc1ccc2ccccc2c1)C(=O)O; Mercaptoacetyl = O=C(CS)*

Legend:
[1] = Lipophilicity, modified shake-flask method; type: physicochemical
Procedure: The lipophilicity of [^99mTc]PSMA-HSG, [^99mTc]EuK(SO3)Cy5-mas3 and [^99mTc]EuK(SO3)Cy5(SO3)-mas3 was determined via a modified shake-flask method as described ([…]. et al., Eur. J. Nuc. Mol. Med. Imaging Res., 2014, 4, 63).

Plasma protein binding = type: in vitro ADME; settings: plasma
Procedure: Quantum yield, molar extinction coefficient and serum protein binding experiments were performed according to previously published procedures (Hensbergen A. W. et al., Dyes and Pigments, 2018, 152, 19-28).

[2] = tested on: LNCaP xenograft bearing NSG mice; assay: Biodistribution in LNCaP xenograft bearing NSG mice; type: in vivo
Procedure: (§1) The biodistribution of [^99mTc]PSMA-HSG, [^99mTc]EuK(SO3)Cy5-mas3 and [^99mTc]EuK(SO3)Cy5(SO3)-mas3 was investigated in LNCaP xenograft bearing NSG mice. […] (0.1 nmol-cohort), respectively.
(§2) To assess the influence of the different ligand designs of [^99mTc]PSMA-HSG and [^99mTc]mas3-(SO3)Cy5(SO3)—EuK on in vivo PSMA-targeting and general pharmacokinetics, their in vivo biodistribution was investigated in LNCaP xenograft bearing NSG mice in two different experimental settings: • A) at 2 h p.i. using a ligand dose of 1 nmol/animal. These conditions were chosen to allow comparability of the data from this study (Table 3) with previous results in a different tumor model (Hensbergen, A. W. et al., J. Nucl. Med., 2020, 61, 234-241). Here, [^99mTc]mas3-Cy5(SO3)—EuK was additionally included as an internal reference to establish the “missing link” between studies. • B) at 6 h p.i. using a ligand dose of 0.1 nmol/animal (Table 4). The latter settings were adapted to a timeline and dosing with more similarity to the clinical situation (surgery at a later time point, microdosing principle). Of note, however, a ligand amount of 0.1 nmol/mouse (extrapolation: 280 nmol/70 kg patient) still exceeds the potentially applicable clinical dose (48 nmol/70 kg patient for a compound with a molecular weight of −2100 g/mol). Nevertheless, it represents a dose level at which significant competition effects between unlabeled precursor and radioligand for PSMA binding sites in tumor tissue are not probable (Eder A. C. et al., J. Nucl. Med., 2021, 62, 1461-1467; Kalidindi T. M. et al., Eur. J. Nucl. Med. Mol. Imaging, 2021, 48, 2642-2651).

[3] = as above; type: in vivo; settings: NSG, mouse, in vivo, iv, total radioactivity; for tissue uptake at 6 h: 0.1 nmol/animal; for tissue uptake at 2 h: 1 nmol/animal
Procedure: as §1, §2

[4] = tested on: PC346C orthotopic xenografts in Balb/c nude mice; settings: 1 nmol ligand, 2 h p.i.; cited from earlier work
PSMA [5] = target: T1, PSMA (Homo sapiens, UniProt Q04609); assay: Competitive binding experiments (IC50) using PSMA-expressing LNCaP cells and ([125I]I-BA)EuK as standard radioligand
T1 construct: using PSMA-expressing LNCaP cells and ([^125I]I-BA)EuK as standard radioligand; endogenous in cells; host or cells: LNCaP cells
T1 sequence (Q04609 whole entry): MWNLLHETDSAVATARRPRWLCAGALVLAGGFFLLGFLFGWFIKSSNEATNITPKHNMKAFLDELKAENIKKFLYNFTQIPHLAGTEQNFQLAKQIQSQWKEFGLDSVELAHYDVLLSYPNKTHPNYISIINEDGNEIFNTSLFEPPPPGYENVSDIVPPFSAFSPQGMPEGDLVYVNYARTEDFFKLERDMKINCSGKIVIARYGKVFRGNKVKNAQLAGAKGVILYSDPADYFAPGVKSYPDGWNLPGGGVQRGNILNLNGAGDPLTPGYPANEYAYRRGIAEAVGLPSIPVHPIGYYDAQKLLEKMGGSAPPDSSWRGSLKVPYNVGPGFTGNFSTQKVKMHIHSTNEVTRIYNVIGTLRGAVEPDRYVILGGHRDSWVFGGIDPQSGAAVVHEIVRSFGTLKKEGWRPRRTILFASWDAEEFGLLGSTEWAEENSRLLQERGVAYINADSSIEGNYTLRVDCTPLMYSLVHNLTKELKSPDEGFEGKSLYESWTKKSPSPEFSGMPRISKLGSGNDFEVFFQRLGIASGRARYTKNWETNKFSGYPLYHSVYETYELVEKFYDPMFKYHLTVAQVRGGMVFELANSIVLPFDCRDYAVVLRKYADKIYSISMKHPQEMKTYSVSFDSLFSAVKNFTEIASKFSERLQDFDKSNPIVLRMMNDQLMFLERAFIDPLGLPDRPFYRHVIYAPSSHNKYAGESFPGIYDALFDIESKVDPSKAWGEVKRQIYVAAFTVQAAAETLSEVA
Procedure: Competitive binding experiments (IC50) were carried out in accordance with an established protocol ([…]. et al., Eur. J. Nuc. Mol. Med. Imaging Res., 2014, 4, 63) using PSMA-expressing LNCaP cells and ([^125I]I-BA)EuK as standard radioligand.

PSMA [6] = target: T1, PSMA; settings: LNCaP cells; reference compounds, assayed under identical conditions (literature cited in table title); # = free mas3-chelator; cited from earlier work

CC1(C)C(/C=C/C=C/C=C2/N(CCCCNC(=O)CCCCNC(=O)[C@@H](CO)NC(=O)[C@@H](CO)NC(=O)[C@@H](CO)NC(=O)CS)c3ccccc3C2(C)C)=[N+](CCCCCC(=O)NCCCC[C@H](NC(=O)N[C@@H](CCC(=O)O)C(=O)O)C(=O)O)c2ccc(S(=O)(=O)[O-])cc21 [[^99mTc]mas3-Cy5(SO3)-EuK, metal not drawn]
logP ([1]; radiolabelled tracer, shake-flask, read-out: lipophilicity [log POW]): -1.94
fraction unbound (Plasma protein binding; radiolabelled tracer, four tracers compared in this study, read-out: Plasma Protein Binding (%) (converted)): 0.035
kidney accumulation compared to both ligands containing disulfo-Cy5 ([2]; 2 h p.i., 1 nmol/animal): threefold lower
increase of tumor accumulation over time ([2]; 6 h p.i./0.1 nmol versus 2 h p.i./1 nmol): only slightly increased
tissue uptake at 6 h ([3]; 6 h p.i., read-out: Biodistribution: LNCaP tumor): 8.1 ± 1.4 %ID/g
tissue uptake at 6 h ([3]; 6 h p.i., read-out: Biodistribution: blood): 0.7 ± 0.1 %ID/g
tissue uptake at 6 h ([3]; 6 h p.i., read-out: Biodistribution: heart): 0.3 ± 0.1 %ID/g
tissue uptake at 6 h ([3]; 6 h p.i., read-out: Biodistribution: intestines): 9.7 ± 1.1 %ID/g
tissue uptake at 6 h ([3]; 6 h p.i., read-out: Biodistribution: kidneys): 70 ± 22 %ID/g
tissue uptake at 6 h ([3]; 6 h p.i., read-out: Biodistribution: liver): 1.7 ± 0.3 %ID/g
tissue uptake at 6 h ([3]; 6 h p.i., read-out: Biodistribution: lung): 0.8 ± 0.2 %ID/g
tissue uptake at 6 h ([3]; 6 h p.i., read-out: Biodistribution: muscle): 0.2 ± 0.1 %ID/g
tissue uptake at 6 h ([3]; 6 h p.i., read-out: Biodistribution: pancreas): 0.3 ± 0.1 %ID/g
tissue uptake at 6 h ([3]; 6 h p.i., read-out: Biodistribution: salivary glands): 8.9 ± 2.1 %ID/g
tissue uptake at 6 h ([3]; 6 h p.i., read-out: Biodistribution: spleen): 1.9 ± 0.6 %ID/g
tissue uptake at 6 h ([3]; 6 h p.i., read-out: Biodistribution: stomach): 1.4 ± 0.3 %ID/g
tissue to tissue ratio at 6 h ([3]; 0.1 nmol/mouse, 6 h p.i., 0.1 nmol, read-out: tumor/kidney ratio): 0.12 ± 0.04
tissue uptake at 2 h ([3]; 2 h p.i., read-out: Biodistribution: LNCaP tumor): 6.6 ± 2.8 %ID/g
tissue uptake at 2 h ([3]; 2 h p.i., read-out: Biodistribution: blood): 0.9 ± 0.1 %ID/g
tissue uptake at 2 h ([3]; 2 h p.i., read-out: Biodistribution: heart): 0.4 ± 0.1 %ID/g
tissue uptake at 2 h ([3]; 2 h p.i., read-out: Biodistribution: intestines): 6.3 ± 2.5 %ID/g
tissue uptake at 2 h ([3]; 2 h p.i., read-out: Biodistribution: kidneys): 21 ± 4.2 %ID/g
tissue uptake at 2 h ([3]; 2 h p.i., read-out: Biodistribution: liver): 1.3 ± 0.5 %ID/g
tissue uptake at 2 h ([3]; 2 h p.i., read-out: Biodistribution: lung): 1.1 ± 0.1 %ID/g
tissue uptake at 2 h ([3]; 2 h p.i., read-out: Biodistribution: muscle): 0.2 ± 0.03 %ID/g
tissue uptake at 2 h ([3]; 2 h p.i., read-out: Biodistribution: pancreas): 0.3 ± 0.1 %ID/g
tissue uptake at 2 h ([3]; 2 h p.i., read-out: Biodistribution: salivary glands): 1.7 ± 0.3 %ID/g
tissue uptake at 2 h ([3]; 2 h p.i., read-out: Biodistribution: spleen): 1.9 ± 0.5 %ID/g
tissue uptake at 2 h ([3]; 2 h p.i., read-out: Biodistribution: stomach): 0.5 ± 0.1 %ID/g
tissue to tissue ratio at 2 h ([3]; 1 nmol/mouse, 2 h p.i., 1 nmol, read-out: tumor/kidney ratio): 0.31 ± 0.15
absolute intestinal uptake [4]: 1.61±0.29 % iD/g
tumor accumulation [4]: 15.2±2.9 % iD/g

CC(=O)SCC(=O)N[C@H](CO)C(=O)N[C@H](CO)C(=O)N[C@H](CO)C(=O)N[C@H](CCCCNC(=O)CCCCCN1\C(=C/C=C/C=C/C2=[N+](C)c3ccc(S(=O)(=O)O)cc3C2(C)C)C(C)(C)c2cc(S(=O)(=O)O)ccc21)C(=O)N[C@H](Cc1ccc(O)cc1)C(=O)N[C@H](Cc1ccc2ccccc2c1)C(=O)N[C@H](CCCCNC(=O)CCCCCCC(=O)NCCCC[C@H](NC(=O)N[C@@H](CCC(=O)O)C(=O)O)C(=O)O)C(=O)O [PSMA-HSG, Ac-mas3-k(Sulfo-Cy5)-γ-nal-k-Sub-EuK]
IC50 (PSMA [5]; LNCaP cells, free mas3-chelator, novel compounds): 29.6 ± 5.6 nM

CC1(C)C(/C=C/C=C/C=C2/N(CCCCNC(=O)CCCCCNC(=O)[C@@H](CO)NC(=O)[C@@H](CO)NC(=O)[C@@H](CO)NC(=O)CS)c3ccc(S(=O)(=O)O)cc3C2(C)C)=[N+](CCCCCC(=O)NCCCC[C@H](NC(=O)N[C@@H](CCC(=O)O)C(=O)O)C(=O)O)c2ccc(S(=O)(=O)[O-])cc21 [[^99mTc]mas3-(SO3)Cy5(SO3)-EuK, metal not drawn]
logP [1]: -2.99
fraction unbound (Plasma protein binding; Plasma Protein Binding (%)): 0.256
lower PSMA-affinity compared to [99mTc]PSMA-HSG (PSMA [5]): 4.5 fold
tissue uptake at 2 h ([3]; Biodistribution: LNCaP tumor): 3.5 ± 1.1 %ID/g
tissue uptake at 2 h ([3]; Biodistribution: blood): 0.7 ± 0.1 %ID/g
tissue uptake at 2 h ([3]; Biodistribution: heart): 0.3 ± 0.1 %ID/g
tissue uptake at 2 h ([3]; Biodistribution: intestines): 4.2 ± 0.4 %ID/g
tissue uptake at 2 h ([3]; Biodistribution: kidneys): 59.2 ± 14.4 %ID/g
tissue uptake at 2 h ([3]; Biodistribution: liver): 1 ± 0.4 %ID/g
tissue uptake at 2 h ([3]; Biodistribution: lung): 1.1 ± 0.2 %ID/g
tissue uptake at 2 h ([3]; Biodistribution: muscle): 0.2 ± 0.03 %ID/g
tissue uptake at 2 h ([3]; Biodistribution: pancreas): 0.3 ± 0.1 %ID/g
tissue uptake at 2 h ([3]; Biodistribution: salivary glands): 3.1 ± 0.5 %ID/g
tissue uptake at 2 h ([3]; Biodistribution: spleen): 4.3 ± 1.3 %ID/g
tissue uptake at 2 h ([3]; Biodistribution: stomach): 0.6 ± 0.1 %ID/g

O=C(O)CC[C@H](NC(=O)N[C@@H](CCCCNC(=O)CCCCCCC(=O)NCCCC[C@@H](NC(=O)[C@@H](Cc1ccc2ccccc2c1)NC(=O)[C@@H](Cc1ccc(O)cc1)NC(=O)[C@H](CO)NC(=O)[C@H](CO)NC(=O)[C@H](CO)NC(=O)CS)C(=O)O)C(=O)O)C(=O)O [PSMA-I&S] (Mercaptoacetyl-SSS[dY][d2Nal][dK](X1)-OH)
IC50 (PSMA [6]): 39.7 ± 1.2 nM
